# In patent KR20230066722A (dated 2023):
# Biological target: S275F RSV F protein (Synagis-resistant RSV antigen) (respiratory syncytial virus, UniProt P03420 26-524)
# Assay: ratio of the ELISA Kd values, reference 11L
binder,measurement,value
"RSV Protein-1A12 Ab (antibody, V domains shown, The ELISA detected the antibody with anti-human IgG Fc-HRP, so a human Fc is implied; also called 항체 1A12; 1A12 항체) VH: EVQLVESGGGLVQPGGSLRLSCAASGFTFTSSWMSWVRQAPGKGLEWVSEIDGYNGSTYYADSVKGRFTISRDNSKNTLYLQMNSLRAEDTAVYYCARTVPWWGMDYWGQGTLVTVSS VL: DIQMTQSPSSLSASVGDRVTITCRASQNISNYLAWYQQKPGKAPKLLIYLASSLESGVPSRFSGSGSGTDFTLTISSLQPEDFATYYCQQANSPPRTFGQGTKVEIK",fold higher affinity for S275F than for 11L,~15 배 (fold)
